From patent US20210062165A1 (TRUSTEES OF PRINCETON UNIVERSITY, published 2021)

Columns and labels:
[1] = molecular target: the molecule itself; experiment: microscopy of self-clustering in yeast (YEZ53), light against dark
Method: Yeast strains were cultured overnight in a 24 well plate covered with foil. SC media was used to avoid the high auto-fluorescence of YPD. The following day, cultures were diluted 1:20 and allowed to grow for 2 hours such that the cells were in exponential phase. Wells of the microscopy plate were coated using 1 mg/mL Concanavalin A (Sigma) dissolved in 20 mM sodium acetate. After washing wells with ddH2O, yeast cultures were transferred and spun down at 1000 rpm for 3 min. All imaging was carried out using a 60X oil immersion objective (NA 1.4) on a Nikon A1 laser scanning confocal microscope. The laser was used at two different wavelengths: 488 nm for activation of Cry2 and 551 nm for visualization of FusionRed. […] Laser settings were 40% intensity for 488 nm and 30% intensity for 561 nm. Exposure times for both wavelengths was 200 ms.

[2] = molecular target: T1, FUS^N-Citrine-PixE fusion protein; experiment: microscopy of co-clustering in yeast strain YEZ555, dark against blue light
T1 construct: Expressed inside S. cerevisiae cells (strains YEZ231, YEZ232, YEZ555); The listing entry is DNA, not protein; also called FUS^NPixE; EZ-L498

B1: FUS^N-FusionRed-Cry2 fusion protein (other)
chain: MASASNDYTQQATQSYGAYPTQPGQGYSQQSSQPYGQQSYSGYSQSTDTSGYGQSSYSSYGQSQNTGYGTQSTPQGYGSTGGYGSSQSSQSSYGQQSSYPGYGQQPAPSSTSGSYGSSSQSSSYGQPQSGSYSQQPSYGGQQQSYGQQQSYNPPQGYGQQNQYNSSSGGGGGGGGGGNYGQDQSSMSSGGGSGGGYGNQDQSGGGGSGGYGQQDRGGGGMVSELIKENMPMKLYMEGTVNNHHFKCTSEGEGKPYEGTQTMRIKVVEGGPLPFAFDILATSFMYGSRTFIKHPPGIPDFFKQSFPEGFTWERVTTYEDGGVLTATQDTSLQDGCLIYNVKVRGVNFPANGPVMQKKTLGWEASTETMYPADGGLEGACDMALKLVGGGHLICNLETTYRSKKPATNLKMPGVYNVDHRLERIKEADDETYVEQHEVAVARYSTGGAGDGGKAATRMKMDKKTIVWFRRDLRIEDNPALAAAAHEGSVFPVFIWCPEEEGQFYPGRASRWWMKQSLAHLSQSLKALGSDLTLIKTHNTISAILDCIRVTGATKVVFNHLYDPVSLVRDHTVKEKLVERGISVQSYNGDLLYEPWEIYCEKGKPFTSFNSYWKKCLDMSIESVMLPPPWRLMPITAAAEAIWACSIEELGLENEAEKPSNALLTRAWSPGWSNADKLLNEFIEKQLIDYAKNSKKVVGNSTSLLSPYLHFGEISVRHVFQCARMKQIIWARDKNSEGEESADLFLRGIGLREYSRYICFNFPFTHEQSLLSHLRFFPWDADVDKFKAWRQGRTGYPLVDAGMRELWATGWMHNRIRVIVSSFAVKFLLLPWKWGMKYFWDTLLDADLECDILGWQYISGSIPDGHELDRLDNPALQGAKYDPEGEYIRQWLPELARLPTEWIHHPWDAPLTVLKASGVELGTNYAKPIVDIDTARELLAKAISRTREAQIMIGAAARDPPVATGSGSGSG
notes: Expressed inside S. cerevisiae cells (strains YEZ53, yNS47); The listing entry is DNA, not protein; also called optoDroplets; optoDroplet
[1]
  binding result: binds

B2: sFUS-FusionRed-PixD fusion protein (other)
chain: MASNDYTQQATQSYGAYPTQPGQGYSQQSSQPYGQQSYSGYSQSTDTSGYGQSSYSSYGQSQNTGYGTQSTPQGYGSTGGYGSSQSSQSSYGQQGGGMVSELIKENMPMKLYMEGTVNNHHFKCTSEGEGKPYEGTQTMRIKVVEGGPLPFAFDILATSFMYGSRTFIKHPPGIPDFFKQSFPEGFTWERVTTYEDGGVLTATQDTSLQDGCLIYNVKVRGVNFPANGPVMQKKTLGWEASTETMYPADGGLEGACDMALKLVGGGHLICNLETTYRSKKPATNLKMPGVYNVDHRLERIKEADDETYVEQHEVAVARYSTGGAGDGGKAATRMSLYRLIYSSQGIPNLQPQDLKDILESSQRNNPANGITGLLCYSKPAFLQVLEGECEQVNETYHRIVQDERHHSPQIIECMPIRRRNFEVWSMQAITVNDLSTEQVKTLVLKYSGFTTLRPSAMDPEQCLNFLLDIAKIYELSDNFFLDL
notes: Expressed inside S. cerevisiae cells (strain YEZ555). sFUS is the first 93 amino acids of the FUS^N domain; The listing entry is DNA, not protein; also called sFUS-FR-PixD; EZ-L767
[2]
  binding result: binds
